Measurements taken from the supplement of paper PMC9170038.

System: K4 kissing-loop RNA reporter
Assay: apparent KD of K4 kissing-loop reporter; higher = weaker reporter binding
Details: Eterna round: R107
Procedure: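 RNA-MaP round R107: designed RNA switches with theophylline, tryptophan, arginine or FMN aptamers are transcribed on-chip within common flanks. They are titrated with a labelled K4 kissing-loop RNA reporter in RNA-MaP buffer (100 mM Tris pH 7.5, 80 mM KCl, 4 mM MgCl2), without ligand or with the indicated ligand. Median apparent KD per design.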

[1] = input ligand: theophylline 20 uM
[2] = input ligand: tryptophan 2.4 mM
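Further: bound reporter read as fluorescence of individual clusters on recovered sequencing chips by microscopy, with normalized cluster intensities fitted with a binding model.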

Row | Sequence | apparent KD of K4 kissing-loop reporter (input ligand: FMN 200 uM) | apparent KD of K4 kissing-loop reporter (input ligand: arginine 13.2 mM) | apparent KD of K4 kissing-loop reporter (input ligand: none) | apparent KD of K4 kissing-loop reporter [1] | apparent KD of K4 kissing-loop reporter [2]
1 | AUACAGCGAAGCGCUAGUGAUGUUAGCGAAGGAGCGACUCAGGAGUCAGGUAGGUCGCGCUAAACAGGUUACGAGAGUAACCAGU [Arg A Ex t1] | 142 nM | 120 nM | 140 nM | 137 nM | 113 nM
2 | ACACUAUCGUCAUAGACGGUAGUGAAAGCUGAGGAUAUGAGUGAUGUUAGAAGGUAGCAAGACUGUAUCGAAUAGAUACAGUCAA [FmnA 5 #K4BetweenAptamer #OpenEnded] | 227 nM | 111 nM | 163 nM | 162 nM | 141 nM
3 | UAUAUAGUGACGGCCGCCACUAUUGUGAUGUUAUUGUUAGAGUGAUGUUUUGUUGUUUAAUUUUGUAGGACCGGGUUAUAUGUUA [xxzsmullin] | 846 nM | 451 nM | 568 nM | 530 nM | 543 nM
4 | ACGUCCGGGUUAAUCGUGGGCGUGGUGGAUACCAGUUCUUCAAUGAACCCUUGGCAGCCACGUGAGUGAUGUUCACGUGCGAUGA [#15 K4 Theophylline A Exclusion] | 98.7 nM | 83.3 nM | 89.5 nM | 88.7 nM | 88.6 nM
5 | ACAAUGAUCAAAGGAUAUCGUAAGUUAUACAUCACGCGAUGAUUCAGAGGCGAGUGAUGUUUGUCUCGAGAAGGUUGGUACCGUC [theeternabot_exclusion_KL_FMN_B_37] | 366 nM | 539 nM | 521 nM | 599 nM | 568 nM
6 | GGAUCCACCAGUGAUGUUGGAGAAAACUCGAAGGAUAUGACGAAAGUCAGAAGGUCGUAGACUGGACAAAGUCCGGUCGGAUCCA [FmnA 19 G30+C56] | 500 nM | 541 nM | 539 nM | 490 nM | 461 nM
7 | UUAGAUCAAAGAUCAGUCUUAUUGAGAGAACGAGGACCGGUACGGCCGCCACUCGAGUGAUGUUCGAGAACUCUCUUGACAAAUU [AK1 EXC Tryptophan A] | 158 nM | 150 nM | 169 nM | 133 nM | 258 nM
8 | ACGUCACGUAAACUCGUGGUUUCGAUCGAUACCAGUAGCGAGAGUUACCCUUGGCAGCGACAUGAGUGAUGUUCAUGUACGAAGA [KL-XTheoA1] | 101 nM | 89.1 nM | 97 nM | 102 nM | 91.7 nM
9 | UACAAACGUAGUGAUGUUACGUACUCUGAUACCAGACAACUCUAAGUCCCUUGGCAGCAGUCACUUAGCUUAUUAUUUUCUCAAA [JR_Nu_ExcTheophyA_Sub026] | 106 nM | 134 nM | 116 nM | 130 nM | 103 nM
10 | GGGCGCGGCGCGGCCGCCACUGCGCCUGGGUGCUCGCUGAGUGAUGUUCGUCGGCGGUUGGGUGGUAGGACCGGGUGCUGGCCGG [BDazzled - #13 SS Tryptophan B] | 654 nM | 463 nM | 525 nM | 522 nM | 527 nM
11 | GGAUCCACCAGUGAUGUUGGAAAAUACUCCAAGGAUAUGACGAAAGUCAGAAGGUGGUAGACUGGACAAAGUCCAGUCGGAUCCA [FmnA 27 #SwitchBubble #K4Early] | 531 nM | 205 nM | 527 nM | 537 nM | 504 nM
12 | GCCGUAGAUUGAAGGAGCGCCAUCUUACCAAGAGUGAUGUUCUUUGGUACCAUGUACAGCUGGCAGGUAGGUCGCAAUCUACGGC | 192 nM | 151 nM | 173 nM | 181 nM | 169 nM
13 | UGUACCGAGUCAGGAUAUGGCGUCGAAAGACGAAUGCUAGUGAUGUUAGGGAUCUGCGAAAGCAGUUCAGAAGGGACUUGGUACU [FmnBS 26 G36+U67] | 275 nM | 292 nM | 404 nM | 379 nM | 338 nM
14 | UGUACCGAGUGAGGAUAUGUCGUCGAAAGACGAAAUGGAGUGAUGUUCCUUAAACUGCGAAAGCAGACAGAAGGCACUUGGUACU [FmnBS 29 G11+C75] | 129 nM | 171 nM | 192 nM | 170 nM | 168 nM
15 | AUUAUAAAGGCGGCCGCCACUAGUGAUGUUAGUGACUAUAGUAUUAUCUAUAGAAUAAAAUAAAAUAGGACCGGGCCAAAAUAUU [AstrosExTryB#2] | 535 nM | 411 nM | 525 nM | 493 nM | 464 nM
16 | GGUAGCAUGGCGGCCGCCACUUAGACUGGAUCGGAAACGAUCCAGUGAAAACGAGUGAUGUUCGUAAGGACCGGGCCAUGCUACC | 386 nM | 301 nM | 318 nM | 350 nM | 173 nM

Row | Sequence | apparent KD of K4 kissing-loop reporter (input ligand: FMN 200 uM) | apparent KD of K4 kissing-loop reporter (input ligand: arginine 13.2 mM) | apparent KD of K4 kissing-loop reporter (input ligand: none) | apparent KD of K4 kissing-loop reporter [1] | apparent KD of K4 kissing-loop reporter [2]
17 | UGAUAGGACAGAAGGAGCGGGAGUGAUGUUCCCAAAUGGAUAGGUCGACAAAGUCGACCCUCCCAGGUAGGUCGCUGUCCUAUCU [ArgBX 7 #SwitchBubble #StaticStem] | 206 nM | 246 nM | 219 nM | 247 nM | 187 nM
18 | AAACAUCACUGGGAGUGAUGUUCUCAGUGACGAGGACCGGUACGGCCGCCACUCGCGAGAGAUUUAGUCUAGUCUUGACUGCAUU [Excl Tryptophan A V12] | 299 nM | 303 nM | 264 nM | 372 nM | 331 nM
19 | GGGUCUGUCGGAAGGAGCGCGCUAUGGAGUGAUGUUCCAUGACCGUACAGCUUACGGUCAGCGCAGGUAGGUCGCCGAUAGCGUU [Geordiar] | 153 nM | 116 nM | 142 nM | 151 nM | 120 nM
20 | AAGAGAGCGAGAAGGAGCGAGAAAGCUAGUGCAUAUGCACUAGCAAAGCAGUGAUGUUGCACUCAGGUAGGUCGCUCGCUCUCAA [AK1.2 SS Arginine B] | 384 nM | 292 nM | 350 nM | 395 nM | 291 nM
21 | AAGCAGUCACUCGACACCAUCGAAGAUGGGCGAGGACCGGUACGGCCGCCACUCGGAGUGAUGUUCUGAUGACUGCAAAAUAAAA [MatMod 9 - Jieux - Exclusion - Tryptophan A] | 99.9 nM | 60.1 nM | 86.3 nM | 158 nM | 75.6 nM
22 | UCGCAAGAAUCACUGUGGAGGACCUUGGCCAAGGAUAUCAAAGGAUUGAGAAGGUGGCGCCAAGUGAUGUUUGGAUGCCGGGCAG [theeternabot_exclusion_KL_FMN_A_36] | 149 nM | 286 nM | 293 nM | 183 nM | 256 nM
23 | GGGCAUGAUACGAUAAAAUAGUGGAGAGAUACCAGCGUUUUAGAUCGCCCUUGGCAGCUCUCGAGUGAUGUUCGGGUAGCUCUGA [Onedra] | 101 nM | 98.5 nM | 115 nM | 114 nM | 104 nM
24 | AGUUCUUGCCGAAGGAGCGAGGCAGAGUGAUGUUCUGCAAAGAGGUCGAAAGACCUCCUGCCUCAGGUAGGUCGCGGCAUGAACA [Omei KL Arginine B Exc A v5] | 814 nM | 942 nM | 652 nM | 509 nM | 1260 nM
25 | ACGACGCAUAGUGAUACCAGCAUUAUAUGAGUGAUGUUCUACCUAAAAUGGUAAUAAUUAUGCCCUUGGCAGCACUAUGCGUCAG [KL-SSTheoB3] | 340 nM | 400 nM | 409 nM | 501 nM | 247 nM
26 | GGUUUAUAAGAGGAUACCAGUACAAAUAAAGUACAUUAAUAGUAGAGUGAUGUUCUAAAGUACCCUUGGCAGCUUAGAUUAAGUU [ExTheophylB.F] | 114 nM | 226 nM | 151 nM | 217 nM | 85.4 nM
27 | GGAUAGGACAGAGGAUAUGGAGAGUCUACAAAGUAGGCUCAUAAUCCUUGAAUGGAAGUGAUGUUUCCAGAAGGCUGUCCUAUCG [FmnBX 17 - #SwitchBubble #StaticStem #Palindromic] | 664 nM | 99.9 nM | 103 nM | 101 nM | 119 nM
28 | AUUUUUUACAGAAGGAGCGUGUUAUAAUAAUCAUAUUGCUUAGCGAGUGAUGUUCGCUUUACACAGGUAGGUCGCUGUUUAUUUA [JR_Nu_ExcArginiB_Sub029] | 167 nM | 168 nM | 176 nM | 180 nM | 151 nM
29 | AAUAUGAAGCAGUGAUGUUGCUUAUGAGAAGGAGCGCACGAAAGUGCAGGUAGGUCGCUCAGCCAAGUGGACGAAAACGUCCACA [whbob_SS_Arginine_A_sa107] | 98.3 nM | 99.9 nM | 86.6 nM | 87.2 nM | 91 nM
30 | UGAUAGGACAGAAGGAGCGGAAGUGAUGUUUCCAAAAGGAUAAGGUGUCAAAAGACACCCUUCCAGGUAGGUCGCUGUCCUAUCU [ArgBX 13 #Palindromic #SwitchBubble #StaticStem] | 148 nM | 165 nM | 134 nM | 145 nM | 136 nM
31 | CUAUAAGUGCCGAGUGAUGUUCGGCCAAUACGAGGACCGGUACGGCCGCCACUCGGUCAGUGGGUGCCCACCGGGCAUGGCUGAC [Cecezaa] | 174 nM | 217 nM | 176 nM | 227 nM | 112 nM
32 | GGUAGCAUGGCGGCCGCCACUACCUAGUGAUGUUAGGCUGUGGACAUAGGAGCAAGAUAAAUAUGUAGGACCGGGCCAUGCUACC | 129 nM | 88.8 nM | 103 nM | 119 nM | 111 nM
